Results from the supplement of paper PMC9112550, “Optimization of the antimicrobial peptide Bac7 by deep mutational scanning” (BMC Biology, 2022).

Test system: Escherichia coli TOP10
Test: shrunken log2 fold change of peptide-encoding DNA abundance (4.5 h post-induction vs induction); higher = less antimicrobial activity (less host growth inhibition)
Settings: time post-induction: 4.5 h; library: site-saturation at positions 5, 18, 19, 20
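Also: peptides expressed intracellularly from a pBAD plasmid library in pooled LB shake-flask culture, induced with 0.3% L-arabinose, DNA abundance read by NGS, three biological replicates, DESeq2 with apeglm shrinkage.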

Sequence	shrunken log2 fold change
RRIRCRPPRLPRPRPRPPPIPRP	0.998
RRIRNRPPRLPRPRPRPNMYPRP	-0.392
RRIRRRPPRLPRPRPRPQMRPRP	1.05
RRIRDRPPRLPRPRPRPPCDPRP	-0.0123
RRIRSRPPRLPRPRPRPTDVPRP	0.0781
RRIRKRPPRLPRPRPRPNSIPRP	-0.0805
RRIRFRPPRLPRPRPRPLELPRP	0.0344
RRIRIRPPRLPRPRPRPKTHPRP	-0.203
RRIRLRPPRLPRPRPRPWILPRP	-0.0709
RRIRRRPPRLPRPRPRPTGSPRP	0.302
RRIRFRPPRLPRPRPRPNCLPRP	-0.0273
RRIRARPPRLPRPRPRPGWIPRP	0.161
RRIRERPPRLPRPRPRPYGAPRP	-0.569
RRIRERPPRLPRPRPRPNPWPRP	-0.0758
RRIRGRPPRLPRPRPRPWISPRP	-0.191
RRIRLRPPRLPRPRPRPEHPPRP	-0.00635
RRIRVRPPRLPRPRPRPLWYPRP	-0.263
RRIRSRPPRLPRPRPRPEWVPRP	0.146
RRIRIRPPRLPRPRPRPTTGPRP	-0.228
RRIRHRPPRLPRPRPRPVCMPRP	-0.0845
RRIRVRPPRLPRPRPRPDRFPRP	0.0559
RRIRYRPPRLPRPRPRPLYMPRP	-0.441

Sequence	shrunken log2 fold change
RRIRNRPPRLPRPRPRPICKPRP	0.0454
RRIRVRPPRLPRPRPRPVSNPRP	-0.0653
RRIRTRPPRLPRPRPRPEAGPRP	0.286
RRIRCRPPRLPRPRPRPHRYPRP	-0.114
RRIRSRPPRLPRPRPRPFDMPRP	0.394
RRIRVRPPRLPRPRPRPYNFPRP	-0.577
RRIRCRPPRLPRPRPRPMKDPRP	-0.594
RRIRTRPPRLPRPRPRPNMYPRP	-0.637
RRIRMRPPRLPRPRPRPAFVPRP	0.233
RRIRSRPPRLPRPRPRPTNEPRP	0.308
RRIRTRPPRLPRPRPRPKNCPRP	-0.0901
RRIRQRPPRLPRPRPRPRAKPRP	0.0777
RRIRVRPPRLPRPRPRPMSWPRP	0.0132
RRIRHRPPRLPRPRPRPHKCPRP	-0.11
RRIRDRPPRLPRPRPRPTFIPRP	-0.13
RRIRSRPPRLPRPRPRPGYYPRP	-0.457
RRIRMRPPRLPRPRPRPYDTPRP	-0.171
RRIRIRPPRLPRPRPRPLVHPRP	-0.266
RRIRTRPPRLPRPRPRPLSPPRP	0.0169
RRIRGRPPRLPRPRPRPRVYPRP	0.35
RRIRSRPPRLPRPRPRPVSEPRP	-0.125
RRIRLRPPRLPRPRPRPDDVPRP	-0.00776

Sequence	shrunken log2 fold change
RRIRQRPPRLPRPRPRPWENPRP	0.0728
RRIRCRPPRLPRPRPRPIWWPRP	0.475
RRIRSRPPRLPRPRPRPDFGPRP	0.0573
RRIRVRPPRLPRPRPRPFVNPRP	-0.0619
RRIRYRPPRLPRPRPRPVSNPRP	-1.07
RRIRFRPPRLPRPRPRPMLSPRP	-0.0375
RRIRNRPPRLPRPRPRPKNCPRP	-0.552
RRIRFRPPRLPRPRPRPRMKPRP	-0.0673
RRIRIRPPRLPRPRPRPWTHPRP	-0.0959
RRIRIRPPRLPRPRPRPHMTPRP	-0.64
RRIRQRPPRLPRPRPRPFTVPRP	-0.0315
RRIRSRPPRLPRPRPRPEHGPRP	-0.0838
RRIRARPPRLPRPRPRPWPGPRP	0.266
RRIRMRPPRLPRPRPRPMHNPRP	0.0989
RRIRLRPPRLPRPRPRPLSCPRP	-0.0916
RRIRWRPPRLPRPRPRPPEWPRP	0.36
RRIRSRPPRLPRPRPRPQKYPRP	-0.428
RRIRERPPRLPRPRPRPFFTPRP	-0.106
RRIRWRPPRLPRPRPRPVRIPRP	-0.0854
RRIRVRPPRLPRPRPRPEFIPRP	-0.176
RRIRKRPPRLPRPRPRPTIFPRP	0.2
RRIRNRPPRLPRPRPRPSKIPRP	-0.846

Sequence	shrunken log2 fold change
RRIRHRPPRLPRPRPRPPGEPRP	0.418
RRIRLRPPRLPRPRPRPVLFPRP	-0.0101
RRIRGRPPRLPRPRPRPVHSPRP	0.0124
RRIRIRPPRLPRPRPRPQLQPRP	-0.0769
RRIRLRPPRLPRPRPRPQKDPRP	-0.449
RRIRKRPPRLPRPRPRPHNMPRP	-0.438
RRIRVRPPRLPRPRPRPVFMPRP	-0.113
RRIRQRPPRLPRPRPRPAGIPRP	0.0977
RRIRDRPPRLPRPRPRPWSFPRP	0.0765
RRIRMRPPRLPRPRPRPHGRPRP	-0.0383
RRIRARPPRLPRPRPRPCVVPRP	0.198
RRIRTRPPRLPRPRPRPKGEPRP	0.0539
RRIRHRPPRLPRPRPRPIFEPRP	-0.0251
RRIRWRPPRLPRPRPRPPNEPRP	0.424
RRIRDRPPRLPRPRPRPIRIPRP	-0.0935
RRIRNRPPRLPRPRPRPCMGPRP	-0.256
RRIRMRPPRLPRPRPRPCRFPRP	-0.0352
RRIRGRPPRLPRPRPRPKFWPRP	0.533
RRIRERPPRLPRPRPRPDYNPRP	-0.53
RRIRYRPPRLPRPRPRPRMPPRP	-0.354
RRIRCRPPRLPRPRPRPTVHPRP	-0.413
RRIRGRPPRLPRPRPRPHQFPRP	0.106

Sequence	shrunken log2 fold change
RRIRYRPPRLPRPRPRPNRRPRP	-0.023
RRIRLRPPRLPRPRPRPHKVPRP	-0.18
RRIRTRPPRLPRPRPRPTDFPRP	-0.405
RRIRSRPPRLPRPRPRPRGLPRP	0.461
RRIRDRPPRLPRPRPRPQFTPRP	0.0284
RRIRCRPPRLPRPRPRPCCHPRP	-0.204
RRIRHRPPRLPRPRPRPRKVPRP	-0.0134
RRIRHRPPRLPRPRPRPDHTPRP	-0.307
RRIRPRPPRLPRPRPRPLCVPRP	-0.214
RRIRVRPPRLPRPRPRPEATPRP	0.92
RRIRPRPPRLPRPRPRPDVDPRP	0.108
RRIRCRPPRLPRPRPRPSSWPRP	-0.251
RRIRWRPPRLPRPRPRPYHGPRP	-0.327
RRIRRRPPRLPRPRPRPPMHPRP	0.693
RRIRARPPRLPRPRPRPSQEPRP	0.0769
RRIRWRPPRLPRPRPRPRYLPRP	-0.382
RRIRYRPPRLPRPRPRPRYAPRP	-0.0163
RRIRLRPPRLPRPRPRPEHHPRP	-0.156
RRIRERPPRLPRPRPRPKEFPRP	-0.11
RRIRPRPPRLPRPRPRPWMWPRP	0.0296
RRIRERPPRLPRPRPRPPSTPRP	-0.136
